Results reported in the supplement of paper PMC9112550, “Optimization of the antimicrobial peptide Bac7 by deep mutational scanning” (BMC Biology, 2022).

test system: Escherichia coli TOP10; experiment: shrunken log2 fold change of peptide-encoding DNA abundance (4.5 h post-induction vs induction); higher = less antimicrobial activity (less host growth inhibition); settings: time post-induction: 4.5 h; library: site-saturation at positions 5, 18, 19, 20
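Note: peptides expressed intracellularly from a pBAD plasmid library in pooled LB shake-flask culture, induced with 0.3% L-arabinose, DNA abundance read by NGS, three biological replicates, DESeq2 with apeglm shrinkage.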

Point of comparison: RRIRWRPPRLPRPRPRPHKIPRP, “shrunken log2 fold change” value -0.0312. Against it:
- RRIRIRPPRLPRPRPRPYERPRP — within 0.2 log units, -0.023
- RRIRCRPPRLPRPRPRPSNVPRP — lower, -0.608
- RRIRSRPPRLPRPRPRPKTCPRP — within 0.2 log units, -0.0741
- RRIRMRPPRLPRPRPRPKYTPRP — higher, 0.169
- RRIRIRPPRLPRPRPRPVPEPRP — within 0.2 log units, -0.138
- RRIRDRPPRLPRPRPRPQPTPRP — within 0.2 log units, 0.0584
- RRIRMRPPRLPRPRPRPECTPRP — higher, 2.91
- RRIRCRPPRLPRPRPRPTFFPRP — within 0.2 log units, 0.114
- RRIRERPPRLPRPRPRPNMIPRP — lower, -0.272
- RRIRCRPPRLPRPRPRPRWPPRP — higher, 0.661
- RRIRARPPRLPRPRPRPDYFPRP — within 0.2 log units, -0.0428
- RRIRCRPPRLPRPRPRPFKQPRP — within 0.2 log units, -0.0402
- RRIRTRPPRLPRPRPRPYQRPRP — within 0.2 log units, -0.0311
- RRIRCRPPRLPRPRPRPTIRPRP — lower, -0.312
- RRIRIRPPRLPRPRPRPQEYPRP — lower, -0.312
- RRIRARPPRLPRPRPRPLVNPRP — within 0.2 log units, 0.0552
- RRIRRRPPRLPRPRPRPWLCPRP — within 0.2 log units, 0.102
- RRIRWRPPRLPRPRPRPHEEPRP — within 0.2 log units, 0.0119
- RRIRVRPPRLPRPRPRPQHPPRP — within 0.2 log units, -0.0951
- RRIRCRPPRLPRPRPRPLTIPRP — lower, -0.66
- RRIRARPPRLPRPRPRPYNHPRP — lower, -0.402
- RRIRHRPPRLPRPRPRPEFVPRP — within 0.2 log units, 0.02
- RRIRQRPPRLPRPRPRPRRLPRP — higher, 0.752
- RRIRFRPPRLPRPRPRPAWKPRP — lower, -0.284
- RRIRTRPPRLPRPRPRPFADPRP — within 0.2 log units, -0.112
- RRIRVRPPRLPRPRPRPCVEPRP — within 0.2 log units, 0.0543
- RRIRLRPPRLPRPRPRPHTTPRP — lower, -0.368
- RRIRTRPPRLPRPRPRPKVLPRP — within 0.2 log units, -0.015
- RRIRLRPPRLPRPRPRPMQIPRP — within 0.2 log units, 0.057
- RRIRNRPPRLPRPRPRPTGAPRP — higher, 0.256
- RRIRWRPPRLPRPRPRPWPHPRP — higher, 0.204
- RRIRKRPPRLPRPRPRPKQRPRP — higher, 0.393
- RRIRFRPPRLPRPRPRPHLNPRP — lower, -0.624
- RRIRGRPPRLPRPRPRPRFPPRP — higher, 0.412
- RRIRERPPRLPRPRPRPYQYPRP — within 0.2 log units, -0.0129
- RRIRDRPPRLPRPRPRPHAIPRP — within 0.2 log units, -0.0018
- RRIRGRPPRLPRPRPRPDGWPRP — higher, 1.34
- RRIRWRPPRLPRPRPRPDCCPRP — higher, 0.777
- RRIRDRPPRLPRPRPRPDYGPRP — within 0.2 log units, -0.181
- RRIRRRPPRLPRPRPRPCCNPRP — within 0.2 log units, -0.029
- RRIRNRPPRLPRPRPRPWVMPRP — within 0.2 log units, -0.00783
- RRIRARPPRLPRPRPRPKSGPRP — within 0.2 log units, 0.166
- RRIRFRPPRLPRPRPRPVDCPRP — within 0.2 log units, -0.0595
- RRIRGRPPRLPRPRPRPEPPPRP — higher, 1.79
- RRIRTRPPRLPRPRPRPCPSPRP — within 0.2 log units, -0.0705
- RRIRFRPPRLPRPRPRPLFMPRP — lower, -0.36
- RRIRYRPPRLPRPRPRPCCPPRP — lower, -0.38
- RRIRARPPRLPRPRPRPPMFPRP — higher, 0.283
- RRIRQRPPRLPRPRPRPTWGPRP — within 0.2 log units, 0.168
- RRIRHRPPRLPRPRPRPSKSPRP — within 0.2 log units, -0.143
- RRIRSRPPRLPRPRPRPPSPPRP — higher, 0.376
- RRIRGRPPRLPRPRPRPRNRPRP — higher, 0.637
- RRIRWRPPRLPRPRPRPYEGPRP — lower, -0.874
- RRIRGRPPRLPRPRPRPPMAPRP — higher, 0.94
- RRIRMRPPRLPRPRPRPTECPRP — within 0.2 log units, 0.0996
- RRIRWRPPRLPRPRPRPQYSPRP — lower, -0.653
- RRIRHRPPRLPRPRPRPAVRPRP — lower, -0.273
- RRIRSRPPRLPRPRPRPREMPRP — within 0.2 log units, 0.159
- RRIRLRPPRLPRPRPRPAMEPRP — within 0.2 log units, -0.0355
- RRIRVRPPRLPRPRPRPRNMPRP — lower, -0.318
- RRIRTRPPRLPRPRPRPLIIPRP — lower, -0.784
- RRIRMRPPRLPRPRPRPEQWPRP — higher, 0.184
- RRIRFRPPRLPRPRPRPNRIPRP — lower, -0.619
- RRIRLRPPRLPRPRPRPVLHPRP — within 0.2 log units, -0.024
- RRIRTRPPRLPRPRPRPYRVPRP — within 0.2 log units, 0.0325
- RRIRFRPPRLPRPRPRPVCVPRP — within 0.2 log units, -0.168
- RRIRPRPPRLPRPRPRPTHHPRP — higher, 0.264
- RRIRMRPPRLPRPRPRPANPPRP — higher, 0.267
- RRIRHRPPRLPRPRPRPRFCPRP — within 0.2 log units, 0.0432
- RRIRSRPPRLPRPRPRPEEEPRP — higher, 1.47
- RRIRGRPPRLPRPRPRPYYYPRP — lower, -0.824
- RRIRTRPPRLPRPRPRPKGYPRP — within 0.2 log units, -0.0992
- RRIRPRPPRLPRPRPRPPNVPRP — within 0.2 log units, -0.0451
- RRIRFRPPRLPRPRPRPLVMPRP — lower, -0.335
- RRIRNRPPRLPRPRPRPCPCPRP — within 0.2 log units, -0.0945
- RRIRYRPPRLPRPRPRPRRNPRP — lower, -0.268
- RRIRIRPPRLPRPRPRPYLVPRP — lower, -0.289
- RRIRPRPPRLPRPRPRPRQPPRP — within 0.2 log units, 0.113
- RRIRGRPPRLPRPRPRPVENPRP — higher, 0.757
- RRIRLRPPRLPRPRPRPLPHPRP — lower, -0.309
- RRIRYRPPRLPRPRPRPFDTPRP — lower, -1.81
- RRIRVRPPRLPRPRPRPRPVPRP — higher, 0.515
- RRIRYRPPRLPRPRPRPRKEPRP — within 0.2 log units, 0.00543
- RRIRHRPPRLPRPRPRPDQVPRP — within 0.2 log units, -0.0632
- RRIRPRPPRLPRPRPRPTYHPRP — lower, -0.274
- RRIRPRPPRLPRPRPRPKDRPRP — within 0.2 log units, -0.114
- RRIRRRPPRLPRPRPRPWVVPRP — within 0.2 log units, -0.0166
- RRIRIRPPRLPRPRPRPQMLPRP — lower, -0.633
- RRIRCRPPRLPRPRPRPSPYPRP — lower, -0.302
- RRIRPRPPRLPRPRPRPAMYPRP — within 0.2 log units, 0.0514
- RRIRCRPPRLPRPRPRPLRWPRP — higher, 0.613
- RRIRPRPPRLPRPRPRPDDYPRP — within 0.2 log units, 0.0238
- RRIRLRPPRLPRPRPRPDNRPRP — within 0.2 log units, -0.0526
- RRIRPRPPRLPRPRPRPVMCPRP — higher, 0.218
- RRIRRRPPRLPRPRPRPHEQPRP — within 0.2 log units, 0.0519
- RRIRERPPRLPRPRPRPPSVPRP — within 0.2 log units, -0.126
- RRIRWRPPRLPRPRPRPAHAPRP — higher, 0.191
- RRIRHRPPRLPRPRPRPNICPRP — lower, -0.925
- RRIRIRPPRLPRPRPRPVYEPRP — within 0.2 log units, -0.12
- RRIRARPPRLPRPRPRPDEQPRP — within 0.2 log units, 0.0992
- RRIRARPPRLPRPRPRPSMWPRP — higher, 0.45
- RRIRSRPPRLPRPRPRPRNPPRP — within 0.2 log units, 0.103
- RRIRLRPPRLPRPRPRPEKKPRP — within 0.2 log units, -0.176
- RRIRERPPRLPRPRPRPCEFPRP — lower, -0.283
- RRIRGRPPRLPRPRPRPKWSPRP — higher, 0.564
- RRIRHRPPRLPRPRPRPTIHPRP — lower, -0.552
- RRIRPRPPRLPRPRPRPKRKPRP — higher, 0.238
- RRIRPRPPRLPRPRPRPYSQPRP — lower, -1.06
- RRIRNRPPRLPRPRPRPAVTPRP — within 0.2 log units, 0.0989
- RRIRVRPPRLPRPRPRPLQRPRP — within 0.2 log units, -0.0358
- RRIRDRPPRLPRPRPRPEETPRP — within 0.2 log units, -0.00131
- RRIRQRPPRLPRPRPRPLFNPRP — lower, -0.367
- RRIRSRPPRLPRPRPRPCHSPRP — within 0.2 log units, 0.00316
- RRIRARPPRLPRPRPRPRIGPRP — higher, 0.267
- RRIRERPPRLPRPRPRPDQPPRP — within 0.2 log units, 0.0454
- RRIRARPPRLPRPRPRPECCPRP — higher, 0.996
- RRIRKRPPRLPRPRPRPQAKPRP — within 0.2 log units, -0.00692
- RRIRWRPPRLPRPRPRPGLIPRP — higher, 0.336
- RRIRRRPPRLPRPRPRPRVHPRP — higher, 0.264
- RRIRTRPPRLPRPRPRPFLMPRP — lower, -0.378
- RRIRHRPPRLPRPRPRPLTDPRP — lower, -0.251
- RRIRYRPPRLPRPRPRPLCVPRP — lower, -0.722
- RRIRWRPPRLPRPRPRPCRFPRP — within 0.2 log units, 0.0225
- RRIRYRPPRLPRPRPRPPLDPRP — higher, 0.443
- RRIRLRPPRLPRPRPRPNQHPRP — within 0.2 log units, -0.222
- RRIRYRPPRLPRPRPRPFTEPRP — lower, -0.955
- RRIRRRPPRLPRPRPRPWQVPRP — within 0.2 log units, 0.0694
- RRIRFRPPRLPRPRPRPQWLPRP — within 0.2 log units, -0.0613
- RRIRFRPPRLPRPRPRPAKPPRP — higher, 0.901
- RRIRGRPPRLPRPRPRPRPCPRP — higher, 0.676
- RRIRCRPPRLPRPRPRPWSFPRP — within 0.2 log units, -0.0435
- RRIRERPPRLPRPRPRPYYCPRP — lower, -0.913
- RRIRMRPPRLPRPRPRPWWVPRP — within 0.2 log units, -0.129
- RRIRPRPPRLPRPRPRPYDMPRP — lower, -0.748
- RRIRIRPPRLPRPRPRPIAIPRP — lower, -0.257
- RRIRKRPPRLPRPRPRPDGQPRP — within 0.2 log units, 0.0566
- RRIRYRPPRLPRPRPRPSRYPRP — within 0.2 log units, -0.122
- RRIRKRPPRLPRPRPRPRTAPRP — higher, 0.843
- RRIRARPPRLPRPRPRPITFPRP — within 0.2 log units, 0.051
- RRIRCRPPRLPRPRPRPSKKPRP — within 0.2 log units, -0.0938
- RRIRKRPPRLPRPRPRPCKLPRP — within 0.2 log units, -0.144
- RRIRYRPPRLPRPRPRPFDAPRP — lower, -0.485
- RRIRRRPPRLPRPRPRPFGAPRP — within 0.2 log units, 0.153
- RRIRTRPPRLPRPRPRPCCKPRP — lower, -0.279
- RRIRDRPPRLPRPRPRPSHHPRP — lower, -0.344
- RRIRFRPPRLPRPRPRPCVDPRP — within 0.2 log units, 0.0365
- RRIRLRPPRLPRPRPRPHKIPRP — within 0.2 log units, -0.0592
- RRIRYRPPRLPRPRPRPRQYPRP — within 0.2 log units, 0.0153
- RRIRIRPPRLPRPRPRPVCAPRP — within 0.2 log units, -0.0399
